According to patent US20120107329:

Target: recombinant human zonulin/pre-HP2 with a 6×His tag at the C-terminus, from baculovirus-infected Sf9 cells (UniProt P00738)
Sequence (P00738 19-406, tags left off): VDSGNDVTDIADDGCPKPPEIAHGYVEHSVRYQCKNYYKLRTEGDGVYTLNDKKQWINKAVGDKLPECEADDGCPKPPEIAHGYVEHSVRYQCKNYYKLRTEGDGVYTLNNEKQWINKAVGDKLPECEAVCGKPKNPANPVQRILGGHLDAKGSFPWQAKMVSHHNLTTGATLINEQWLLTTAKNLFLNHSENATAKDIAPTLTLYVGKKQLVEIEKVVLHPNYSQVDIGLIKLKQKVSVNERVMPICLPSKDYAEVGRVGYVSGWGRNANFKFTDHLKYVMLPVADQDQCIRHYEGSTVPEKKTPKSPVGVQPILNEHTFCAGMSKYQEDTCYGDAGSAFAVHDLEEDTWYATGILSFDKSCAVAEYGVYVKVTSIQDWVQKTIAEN

Substance	proteolytic cleavage, SDS-PAGE
plasmin	plasmin caused complete degradation of the protein
plasma kallikrein	Matriptase, urokinase, thrombin, and plasma kallikrein did not cleave pre-HP2
trypsin (intestinal serine protease; trypsin-agarose beads, Sigma T-1763)	treatment with the intestinal serine protease trypsin led to the appearance of two major bands that migrated with molecular weights compatible with the a2 and b subunits of zonulin
urokinase	Matriptase, urokinase, thrombin, and plasma kallikrein did not cleave pre-HP2
thrombin	Matriptase, urokinase, thrombin, and plasma kallikrein did not cleave pre-HP2
matriptase	Matriptase, urokinase, thrombin, and plasma kallikrein did not cleave pre-HP2
